US20160272683A1 (Novo Nordisk, published 2016)
Numbered stars: 1 amine (or outer) side, 2 acyl side, 3 side chain; on linkers, the order of the positions; unused ones are H or OH. * marks the point of attachment. C20 diacid = O=C(O)CCCCCCCCCCCCCCCCCCC(=O)*; C18 diacid = O=C(O)CCCCCCCCCCCCCCCCC(=O)*; γGlu = O=C(O)[C@H](CCC(=O)[*:2])N[*:1]

T1: human amylin 3(a) receptor (human calcitonin receptor co-expressed with RAMP-3) (human, UniProt P30988 25-474; O60896 24-148, limits assumed)
T1 sequence (looked up) 1: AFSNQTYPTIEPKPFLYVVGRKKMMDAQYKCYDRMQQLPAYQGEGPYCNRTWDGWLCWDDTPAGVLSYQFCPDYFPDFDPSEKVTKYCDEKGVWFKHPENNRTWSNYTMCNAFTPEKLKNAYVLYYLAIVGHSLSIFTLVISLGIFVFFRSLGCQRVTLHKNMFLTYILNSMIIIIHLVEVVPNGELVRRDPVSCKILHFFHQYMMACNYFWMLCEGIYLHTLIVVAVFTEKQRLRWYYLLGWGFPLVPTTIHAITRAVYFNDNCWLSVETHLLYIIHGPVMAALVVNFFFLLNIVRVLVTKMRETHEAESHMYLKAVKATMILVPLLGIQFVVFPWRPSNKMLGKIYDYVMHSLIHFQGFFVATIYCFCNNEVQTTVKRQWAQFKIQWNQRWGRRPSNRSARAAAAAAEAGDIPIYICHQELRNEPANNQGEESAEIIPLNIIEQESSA
T1 sequence (looked up) 2: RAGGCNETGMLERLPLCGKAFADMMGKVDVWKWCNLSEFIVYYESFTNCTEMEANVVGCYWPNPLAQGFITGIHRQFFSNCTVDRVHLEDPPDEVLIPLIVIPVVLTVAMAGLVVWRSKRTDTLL

T2: human calcitonin receptor (human, UniProt P30988 25-474)
T2 sequence (looked up): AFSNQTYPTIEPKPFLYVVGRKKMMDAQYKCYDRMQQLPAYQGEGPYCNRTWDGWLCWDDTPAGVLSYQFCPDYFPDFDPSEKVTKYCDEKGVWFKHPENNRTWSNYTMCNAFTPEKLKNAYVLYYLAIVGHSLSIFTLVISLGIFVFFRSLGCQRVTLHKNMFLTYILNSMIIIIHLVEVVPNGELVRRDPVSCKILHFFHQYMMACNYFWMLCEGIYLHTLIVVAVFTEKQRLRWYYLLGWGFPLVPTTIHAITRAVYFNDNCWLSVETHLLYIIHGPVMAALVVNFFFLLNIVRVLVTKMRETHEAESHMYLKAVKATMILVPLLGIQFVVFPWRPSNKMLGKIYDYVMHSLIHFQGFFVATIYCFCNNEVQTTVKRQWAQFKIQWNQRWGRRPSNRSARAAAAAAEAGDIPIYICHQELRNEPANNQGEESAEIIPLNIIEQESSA


Legend:
[1] = target: T1, human amylin 3(a) receptor (human …); assay: cell-based or functional assay
[2] = target: T2, human calcitonin receptor; assay: cell-based or functional assay

| Binder | hAmylin-R funct. EC50 (pM) [1] [pM] | hCTR funct. EC50 (pM) [2] [pM] |
| --- | --- | --- |
| {C18 diacid}-EASELSTAVLGRLSAELHELATLPRTETGPESP-NH2 (SMILES CC(C)C[C@H](NC(=O)[C@H](CCC(=O)O)NC(=O)[C@H](Cc1c[nH]cn1)NC(=O)[C@H](CC(C)C)NC(=O)[C@H](CCC(=O)O)NC(=O)[C@H](C)NC(=O)[C@H](CO)NC(=O)[C@H](CC(C)C)NC(=O)[C@H](CCCNC(=N)N)NC(=O)CNC(=O)[C@H](CC(C)C)NC(=O)[C@@H](NC(=O)[C@H](C)NC(=O)[C@@H](NC(=O)[C@H](CO)NC(=O)[C@H](CC(C)C)NC(=O)[C@H](CCC(=O)O)NC(=O)[C@H](CO)NC(=O)[C@H](C)NC(=O)[C@H](CCC(=O)O)NC(=O)CCCCCCCCCCCCCCCCC(=O)O)[C@@H](C)O)C(C)C)C(=O)N[C@@H](C)C(=O)N[C@H](C(=O)N[C@@H](CC(C)C)C(=O)N1CCC[C@H]1C(=O)N[C@@H](CCCNC(=N)N)C(=O)N[C@H](C(=O)N[C@@H](CCC(=O)O)C(=O)N[C@H](C(=O)NCC(=O)N1CCC[C@H]1C(=O)N[C@@H](CCC(=O)O)C(=O)N[C@@H](CO)C(=O)N1CCC[C@H]1C(N)=O)[C@@H](C)O)[C@@H](C)O)[C@@H](C)O) [[N-terminal(C18 diacid), 9V]mimylin] | 12 | 9 |
| {C18 diacid-γGlu}-ASELTTAVLGRLSAELHELATLPRTETGSGTP-NH2 [[N-terminal(C18 diacid-gGlu), des1, 6T, 9V, 30S, 31G, 32T]mimylin] | 42 | 30 |
| {C18 diacid-γGlu}-ASELTTAVLGRLSAELHELATLPRTETGTGTP-NH2 [[N-terminal(C18 diacid-gGlu), des1, 6T, 9V, 30T, 31G, 32T]mimylin] | 65 | 32 |
| {C18 diacid-γGlu}-ASEVSTAVVGRLSAELHELATLPRTETGSGSP-NH2 (SMILES CC(C)C[C@H](NC(=O)[C@H](CCC(=O)O)NC(=O)[C@H](Cc1c[nH]cn1)NC(=O)[C@H](CC(C)C)NC(=O)[C@H](CCC(=O)O)NC(=O)[C@H](C)NC(=O)[C@H](CO)NC(=O)[C@H](CC(C)C)NC(=O)[C@H](CCCNC(=N)N)NC(=O)CNC(=O)[C@@H](NC(=O)[C@@H](NC(=O)[C@H](C)NC(=O)[C@@H](NC(=O)[C@H](CO)NC(=O)[C@@H](NC(=O)[C@H](CCC(=O)O)NC(=O)[C@H](CO)NC(=O)[C@H](C)NC(=O)CC[C@H](NC(=O)CCCCCCCCCCCCCCCCC(=O)O)C(=O)O)C(C)C)[C@@H](C)O)C(C)C)C(C)C)C(=O)N[C@@H](C)C(=O)N[C@H](C(=O)N[C@@H](CC(C)C)C(=O)N1CCC[C@H]1C(=O)N[C@@H](CCCNC(=N)N)C(=O)N[C@H](C(=O)N[C@@H](CCC(=O)O)C(=O)N[C@H](C(=O)NCC(=O)N[C@@H](CO)C(=O)NCC(=O)N[C@@H](CO)C(=O)N1CCC[C@H]1C(N)=O)[C@@H](C)O)[C@@H](C)O)[C@@H](C)O) [[N-terminal(C18 diacid-gGlu), des1, 5V, 9V, 10V, 30S, 31G]mimylin] | 11 | 8 |

The next lines start with the values.

| hAmylin-R funct. EC50 (pM) [1] [pM] | hCTR funct. EC50 (pM) [2] [pM] | Binder |
| --- | --- | --- |
| 22 | 23 | {C20 diacid-γGlu}-ASELSTATLGRLSAELHELSTYPRTETGSGSP-NH2 (SMILES CC(C)C[C@H](NC(=O)[C@H](CCCNC(=N)N)NC(=O)CNC(=O)[C@H](CC(C)C)NC(=O)[C@@H](NC(=O)[C@H](C)NC(=O)[C@@H](NC(=O)[C@H](CO)NC(=O)[C@H](CC(C)C)NC(=O)[C@H](CCC(=O)O)NC(=O)[C@H](CO)NC(=O)[C@H](C)NC(=O)CC[C@H](NC(=O)CCCCCCCCCCCCCCCCCCC(=O)O)C(=O)O)[C@@H](C)O)[C@@H](C)O)C(=O)N[C@@H](CO)C(=O)N[C@@H](C)C(=O)N[C@@H](CCC(=O)O)C(=O)N[C@@H](CC(C)C)C(=O)N[C@@H](Cc1c[nH]cn1)C(=O)N[C@@H](CCC(=O)O)C(=O)N[C@@H](CC(C)C)C(=O)N[C@@H](CO)C(=O)N[C@H](C(=O)N[C@@H](Cc1ccc(O)cc1)C(=O)N1CCC[C@H]1C(=O)N[C@@H](CCCNC(=N)N)C(=O)N[C@H](C(=O)N[C@@H](CCC(=O)O)C(=O)N[C@H](C(=O)NCC(=O)N[C@@H](CO)C(=O)NCC(=O)N[C@@H](CO)C(=O)N1CCC[C@H]1C(N)=O)[C@@H](C)O)[C@@H](C)O)[C@@H](C)O) [[N-terminal(C20 diacid-gGlu), des1, 9T, 21S, 23Y, 30S, 31G]mimylin] |
| 64 | 24 | {C20 diacid-γGlu}-ASELSTAALGHLSAELHELATLPHTETGTGTP-NH2 (SMILES CC(C)C[C@H](NC(=O)[C@H](C)NC(=O)[C@H](C)NC(=O)[C@@H](NC(=O)[C@H](CO)NC(=O)[C@H](CC(C)C)NC(=O)[C@H](CCC(=O)O)NC(=O)[C@H](CO)NC(=O)[C@H](C)NC(=O)CC[C@H](NC(=O)CCCCCCCCCCCCCCCCCCC(=O)O)C(=O)O)[C@@H](C)O)C(=O)NCC(=O)N[C@@H](Cc1c[nH]cn1)C(=O)N[C@@H](CC(C)C)C(=O)N[C@@H](CO)C(=O)N[C@@H](C)C(=O)N[C@@H](CCC(=O)O)C(=O)N[C@@H](CC(C)C)C(=O)N[C@@H](Cc1c[nH]cn1)C(=O)N[C@@H](CCC(=O)O)C(=O)N[C@@H](CC(C)C)C(=O)N[C@@H](C)C(=O)N[C@H](C(=O)N[C@@H](CC(C)C)C(=O)N1CCC[C@H]1C(=O)N[C@@H](Cc1c[nH]cn1)C(=O)N[C@H](C(=O)N[C@@H](CCC(=O)O)C(=O)N[C@H](C(=O)NCC(=O)N[C@H](C(=O)NCC(=O)N[C@H](C(=O)N1CCC[C@H]1C(N)=O)[C@@H](C)O)[C@@H](C)O)[C@@H](C)O)[C@@H](C)O)[C@@H](C)O) [[N-terminal(C20 diacid-gGlu), des1, 12H, 25H, 30T, 31G, 32T]mimylin] |
| 37 | 41 | {C20 diacid-γGlu}-ASELSTASLGRLSAELHELATYPRTETGSGSY-NH2 (SMILES CC(C)C[C@H](NC(=O)[C@H](CO)NC(=O)[C@H](C)NC(=O)[C@@H](NC(=O)[C@H](CO)NC(=O)[C@H](CC(C)C)NC(=O)[C@H](CCC(=O)O)NC(=O)[C@H](CO)NC(=O)[C@H](C)NC(=O)CC[C@H](NC(=O)CCCCCCCCCCCCCCCCCCC(=O)O)C(=O)O)[C@@H](C)O)C(=O)NCC(=O)N[C@@H](CCCNC(=N)N)C(=O)N[C@@H](CC(C)C)C(=O)N[C@@H](CO)C(=O)N[C@@H](C)C(=O)N[C@@H](CCC(=O)O)C(=O)N[C@@H](CC(C)C)C(=O)N[C@@H](Cc1c[nH]cn1)C(=O)N[C@@H](CCC(=O)O)C(=O)N[C@@H](CC(C)C)C(=O)N[C@@H](C)C(=O)N[C@H](C(=O)N[C@@H](Cc1ccc(O)cc1)C(=O)N1CCC[C@H]1C(=O)N[C@@H](CCCNC(=N)N)C(=O)N[C@H](C(=O)N[C@@H](CCC(=O)O)C(=O)N[C@H](C(=O)NCC(=O)N[C@@H](CO)C(=O)NCC(=O)N[C@@H](CO)C(=O)N[C@@H](Cc1ccc(O)cc1)C(N)=O)[C@@H](C)O)[C@@H](C)O)[C@@H](C)O) [[N-terminal(C20 diacid-gGlu), des1, 9S, 23Y, 30S, 31G, 33Y]mimylin] |
